Consider 22 molecules from patent US20240010720A1 (IOMX THERAPEUTICS, published 2024).

The target in this experiment is T1, Streptavidin (UniProt P22629 37-163, limits assumed).
T1 construct: also called negative antigen; irrelevant antigen
As to the kind of experiment: ELISA, scFv. In general terms: In an ELISA, binding on a coated surface is turned into a signal by an enzyme label.

Residue numbers refer to the chain shown, from its start.

T1 sequence (P22629 37-163 limits assumed): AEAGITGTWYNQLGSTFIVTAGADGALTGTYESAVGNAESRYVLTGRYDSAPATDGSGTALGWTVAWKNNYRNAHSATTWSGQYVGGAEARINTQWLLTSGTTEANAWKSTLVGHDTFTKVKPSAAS

B1: A-016 (scFv format) (scFv, V domains shown)
VH: QVQLQESGAEVKKPGASVKVSCKASGYTFTGYYMHWVRQAPGQGLEWMGGIIPIFGTANYAQKFQGRVTITADESTSTAYMELSSLRSEDTAVYYCAGAGMELTRSGAYYYYGMDVWGQGTTVTVSS
VL: QSALTQPASVSGSPGQSITISCTGTSSDIGGYTFVSWYQQHPGKAPKVMIHDVNNRPSGISNRFSGSKSGNTASLTISGLQAEDEADYYCSSVTSTNTYVFGTGTKVTVL
notes: scFv
On to B1, for which the binding result is reported as “no binding (tested: <0.025 or <0.05 RFU)”.

B2: A-002 (scFv format) (scFv, V domains shown)
VH: EVQLVESGGGLIQPGGSLRLSCAASGFTVSSNYMSWVRQAPGKGLEWVSVIYSGGSTYYADSVKGRFTISRDNSKNTLYLQMNSLRAEDTAVYYCARGNPYYYGDLQVNFDYWGQGTLVTVSS
VL: QAVVTQEPSLTVSPGGTVTPTCGSSTGAVTSGNLPNWFQQKPGQAPRALIYSTSNKHSWTPARISGSLLGGKAALTLSGVQPEDEAEYYCLLYYGGAWVFGGGTKLTVL
notes: scFv
As to B2, the binding result is “no binding (tested: <0.025 or <0.05 RFU)”.

B3: A-012 (scFv format) (scFv, V domains shown)
VH: B2 VH with V5L, A24V
VL: B2 VL with P20L, G23A, N33Y, L34Y, I64F
notes: scFv
B3: the binding result is given as “no binding (tested: <0.025 or <0.05 RFU)”.

B4: A-013 (scFv format) (scFv, V domains shown)
VH: B2 VH
VL: B2 VL with P20L, G23A, G32A, N33Y, L34Y, I64F, E87D
notes: scFv
Consider B4, for which the binding result is recorded as “no binding (tested: <0.025 or <0.05 RFU)”.

B5: A-006 (scFv format) (scFv, V domains shown)
VH: B2 VH
VL: B2 VL with P20L, G23A, N33Y, L34Y, A48P, I64F, E83D, A97D
notes: scFv
B5: the binding result is “no binding (tested: <0.025 or <0.05 RFU)”.

B6: A-005 (scFv format) (scFv, V domains shown)
VH: B2 VH
VL: B2 VL with G16E, P20L, G23A, N33Y, L34Y, K41R, H57D, I64F
notes: scFv
As for B6, the binding result is on record as “no binding (tested: <0.025 or <0.05 RFU)”.

B7: A-029 (scFv format) (scFv, V domains shown)
VH: QVQLVQSGAEVKKPGSSVKVSCKASGGTFSSYAISWVRQAPGQGLEWMGGIIPIFGTANYAQKFQGRVTITADESTGTAYMELSSLRSEDTAVYYCARSYYYYYGMDVWGQGTTVTVSS
VL: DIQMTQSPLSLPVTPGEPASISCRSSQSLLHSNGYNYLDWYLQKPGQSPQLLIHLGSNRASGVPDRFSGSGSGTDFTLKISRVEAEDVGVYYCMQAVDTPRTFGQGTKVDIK
notes: scFv
In the case of B7, the binding result is “no binding (tested: <0.025 or <0.05 RFU)”.

B8: A-011 (scFv format) (scFv, V domains shown)
VH: QVQLVESGGGVVQPGRSLRLSCAASGFTFSSYAMHWVRQAPGKGLEWVAVISYDGSNKYYADSVKGRFTISRDNSKNTLYLQMNSLRAEDTAVYYCAEGGALNYYGMDVWGQGTTVTVSS
VL: SSELTQDPGVSVALGQTVRITCQGDSLRHFYATWYQQKPGQAPILVIYGKNNRPSGIPDRFSGSSSEDTASLTITGAQAEDEADYYCQSRDPRNNHLIFGGGTKLIVL
notes: scFv
Take B8: the binding result is recorded as “no binding (tested: <0.025 or <0.05 RFU)”.

B9: A-009 (scFv format) (scFv, V domains shown)
VH: QVQLVQSGAEVKKPGSSVKVSCKASGGTFSSYAISWVRQAPGQGLEWMGGIIPIFGTANYAQKFQGRVTITADESTSTAYMELSSLRSEDTAVYYCARGRGFGELYFDYWGQGTLVTVSS
VL: ETTLTQSPATLSVSPGERATLSCRASQGVRSNIAWYQQKPGQAPRLLIYDSSTRATGIPARFSGSGSGTEFTLTISSLQSEDFAVYSCQQYKNWPRTFGQGTKVEIK
notes: scFv
For B9, the binding result is “no binding (tested: <0.025 or <0.05 RFU)”.

B10: A-025 (scFv format) (scFv, V domains shown)
VH: B9 VH with S84T, R100G, G101W, F102L, G103R, E104Q, L105N, Y106W, Y109P
VL: SSELTQDPAVSVALGQTVRITCQGDSLRSYYASWYQQKPGQAPVLVIYGKNNRPSGIPDRFSGSSSGNTASLTITGAQAEDEADYYCNSRDSSGNHPRVFGGGTKLTVL
notes: scFv
For B10, the binding result is “no binding (tested: <0.025 or <0.05 RFU)”.

B11: A-027 (scFv format) (scFv, V domains shown)
VH: B9 VH with E74K, G99A, F102S, G103T, E104W, L105G
VL: EIVLTQSPASLSLSPGERVTLSCRASQSVSNYLAWYQQKPGQAPRLLIYDASNRATGIPARFSGSGSGTDFTLTISSLEPEDFAVYYCQQRDNWPLTFGGGTKVEIK
notes: scFv
For the molecule B11, the binding result is on record as “no binding (tested: <0.025 or <0.05 RFU)”.

B12: A-001 (scFv format) (scFv, V domains shown)
VH: EVQLVESGGGLVKPGGSLRLSCAASGFTFSSYSMNWVRQAPGKGLEWVSSISSSSSYIYYADSVKGRFTISRDNAKNSLYLQMNSLRAEDTAVYYCVRSIIVQALGITSVFDIWGQGTMVTVSS
VL: AIRLTQSPSSLSASVGDRVTISCRASQIISNHLNWYQQKPGKAPKLLIYAASRLQTGVPSRFSGSGSETDYTLTISSLQPEDFATYYCQQSYSNPRTFGHGTKVEIK
notes: scFv
Turning to B12, the binding result was “no binding (tested: <0.025 or <0.05 RFU)”.

B13: A-022 (scFv format) (scFv, V domains shown)
VH: EVQLLESGPGLVKPSQTLSLTCTVSGGSISSGGYYWSWIRQHPGKGLEWIGYIYYSGSTYYNPSLKSRVTISVDTSKNQFSLKLSSVTAADTAVYYCARASRSTDYYFDYWGQGTLVTVSS
VL: QPGLTQPPSMSYGLGQTATLTCTGNRNNIGDQGAAWLQQHQGHPPKLLSYRNNNGPSGISERLSASRSGNTASLTISGLQPEDEADYYCSAWDSSLRAWVFGGGTKLTVL
notes: scFv
Turning to B13, the binding result is “no binding (tested: <0.025 or <0.05 RFU)”.

B14: A-003 (scFv format) (scFv, V domains shown)
VH: VQLVQSGAEVKKPGSSVKVSCKASGGTFSSYAISWVRQAPGQGLEWMGGIIPIFGTANYAQKFQGRVTITADESTSTAYMELSSLRSEDTAVYYCASPRIQLWAAGGFDYWGQGTLVTVSS
VL: QSALTQPASVSGSPGQSITISCTGTSSDVGGYNLVSWYQQHPGKAPKLMIYDVSNRPSGVSNRFSGSKSGNTASLTISGLQAEDEADYYCSSFTTSTTLVFGGGTKLTVL
notes: scFv
As for B14, the binding result was “no binding (tested: <0.025 or <0.05 RFU)”.

B15: A-007 (scFv format) (scFv, V domains shown)
VH: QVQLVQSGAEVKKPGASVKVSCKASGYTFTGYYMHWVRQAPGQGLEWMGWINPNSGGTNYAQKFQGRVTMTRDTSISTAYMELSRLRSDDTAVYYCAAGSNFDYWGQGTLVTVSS
VL: QSALTQPASVSGSPGQSITIACTGSSSDIGSFSYVSWYQQRPGKAPTLIIYGVNNRPLGVSRRFSGSKSGNTASLSISGLQAEDEADYYCSSYTRRSTVIFGGGTKLTVL
notes: scFv
Regarding B15, the binding result is on record as “no binding (tested: <0.025 or <0.05 RFU)”.

B16: A-015 (scFv format) (scFv, V domains shown)
VH: not shown
VL: QPVLTQSPSASASLGASVKLTCTLSSGHTNYAIAWRQQQPGKAPRYLMLLNSDGSHTRGGGIPDRFSGSSSGAERYLTISSLQSEDEADYYCMIWHNNAWVFGGGTKLAVL
notes: scFv
Turning to B16, the binding result is recorded as “no binding (tested: <0.025 or <0.05 RFU)”.

B17: A-034 (scFv format) (scFv, V domains shown)
VH: QMQLVQSGGGLVKPGGSLRLSCAASGFTFSSYTMNWVRQAPGKGLEWVSSISSIGTYIYYADSVKGRFTISRDNAKNSLYLQMNSLRAEDTAVYYCARVLLSGSYYGYFDSWGQGTLVTVSS
VL: QSVLTQPPSVSGAPGQRVTISCTGSSSNIGAGYDVHWYQQLPGTAPKLFIYGNSNRPSGVPDRFSGSKSGTSASLAITGLQAEDEADYYCQSYDSSLSGYVFGTGTKVTVL
notes: scFv
On to B17, for which the binding result was “no binding (tested: <0.025 or <0.05 RFU)”.

B18: A-010 (scFv format) (scFv, V domains shown)
VH: QVQLVQSGAEVKKPGASVKVSCKASGYTFTSYGISWVRQAPGQGLEWMGWISAYNGNTNYAQKLQGRVTMTTDTSTSTAYMELRSLRSDDTAVYYCARVPAWSGQFDYWGQGTLVTVSS
VL: QSALTQPASVSGSPGQSITISCTGSSSDVGGYNYVSWYQQYPGKAPKLMIYDVRSRPSGVSNRFSGSKSGNTASLTISGLQAEDEADYYCTSYTSSNTLVIFGGGTKVTVL
notes: scFv
For the molecule B18, the binding result is “no binding (tested: <0.025 or <0.05 RFU)”.

B19: A-024 (scFv format) (scFv, V domains shown)
VH: QMQLVQSGAEVKKPGSSVKVSCKASGGTFSSYAISWVRQAPGQGLEWMGWISAYNGNTNYAQKLQGRVTMTTDTSTSTAYMELRSLRSDDTAVYYCASLGSYGYTGAFDIWGQGTMATVSS
VL: B18 VL with S25T, Y41H, D52E, R54S, S55N, T91S, N97S, I101V, V108L
On to B19, for which the binding result is “no binding (tested: <0.025 or <0.05 RFU)”.

B20: A-033 (scFv format) (scFv, V domains shown)
VH: QVQLVQSGAEVKKPGASVKVSCKASGYTFTSYGISWVRQAPGQGLEWMGWISAYNGNTNYAQKLQGRVTMTTDTSTSTAYMELRSLRSDDTAVYYCARDHSIVGATTFDYWGQGTLVTVSS
VL: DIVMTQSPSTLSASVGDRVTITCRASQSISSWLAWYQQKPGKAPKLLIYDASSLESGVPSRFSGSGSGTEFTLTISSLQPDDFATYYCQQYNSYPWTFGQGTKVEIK
notes: scFv
Regarding B20, the binding result is “no binding (tested: <0.025 or <0.05 RFU)”.

B21: A-023 (scFv format) (scFv, V domains shown)
VH: QVQLVQSGAEVKKPGSSVKVSCKASGGTFSSYAISWVRQAPGQGLEWMGGIIPIFGTANYAQKFQGRVTITADESTSTAYMELSSLRSEDTAVYYCARPKYSSGWFYYYGMDVWGQGTTVTVSS
VL: QSVLTQPPSVSAAPGQKVTISCSGSSSNIGNNYVSWYQQLPGTAPKLLIYDNNKRPSGIPDRFSGSKSGTSATLGITGLQTGDEADYYCGTWDSSLSVVFGGGTKLTVL
notes: scFv
As for B21, the binding result is “no binding (tested: <0.025 or <0.05 RFU)”.

B22: A-008 (scFv format) (scFv, V domains shown)
VH: QLQLQESGPGLVKPSETLSLTCTVSGGSISSSGYYWGWIRQPPGKGLEWIGSIYYSGSTYYNPSLKSRVTISVDTSKNQFSLKLSSVTAADTAVYYCARHRVRFGEFDAFDIWGQGTMVTVSS
VL: QAVLTQPPSVSGAPGERVTLSCTGTSSNVGADFDVHWYQQFPGTAPRLLIFGSDNRPSGVPDRFSGSKSGTSASLAITGLQVEDEADYYCQAYDVRLSGWVFGGGTKLTVL
notes: scFv
As to B22, the binding result was “no binding (tested: <0.025 or <0.05 RFU)”.
